Source: patent US20240109954A1 (GENERAL HOSPITAL, published 2024)

Legend:
[1] = target: T1, EBOV GP displayed on vesicular stomatitis virus (VSV) pseudovirions (Ebola virus, UniProt Q05320 33-676); assay: cell-based or functional assay
T1 sequence: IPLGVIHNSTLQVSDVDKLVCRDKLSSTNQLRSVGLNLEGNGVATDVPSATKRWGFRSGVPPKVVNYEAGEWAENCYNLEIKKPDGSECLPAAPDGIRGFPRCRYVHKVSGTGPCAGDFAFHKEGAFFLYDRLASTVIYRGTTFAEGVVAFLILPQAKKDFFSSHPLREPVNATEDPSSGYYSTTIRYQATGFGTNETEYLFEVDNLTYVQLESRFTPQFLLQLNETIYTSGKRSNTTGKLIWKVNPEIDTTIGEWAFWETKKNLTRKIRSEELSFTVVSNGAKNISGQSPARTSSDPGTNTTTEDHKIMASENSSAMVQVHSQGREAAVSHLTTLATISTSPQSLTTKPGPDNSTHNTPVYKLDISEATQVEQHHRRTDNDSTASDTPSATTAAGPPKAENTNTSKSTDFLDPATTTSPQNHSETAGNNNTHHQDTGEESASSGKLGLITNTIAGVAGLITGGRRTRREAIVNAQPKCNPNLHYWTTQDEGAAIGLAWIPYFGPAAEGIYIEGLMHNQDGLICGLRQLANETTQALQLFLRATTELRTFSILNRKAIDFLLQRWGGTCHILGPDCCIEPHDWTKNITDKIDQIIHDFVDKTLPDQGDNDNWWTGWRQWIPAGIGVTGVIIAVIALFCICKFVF

[2] = target: T1, EBOV GP displayed on vesicular …; assay: cell-based or functional assay; remark: listed apart in the source
mouse FcγRIII [3] = target: T2, mouse FcγRIII (mouse, UniProt P08508 31-215); assay: BLI, mAb on anti-human Fab-CH1 sensor, FcγR in solution; monomeric mAb:receptor affinity of Table 6 (weak binding)
T2 construct: also called mFcγRIII; mFcγR3
T2 sequence: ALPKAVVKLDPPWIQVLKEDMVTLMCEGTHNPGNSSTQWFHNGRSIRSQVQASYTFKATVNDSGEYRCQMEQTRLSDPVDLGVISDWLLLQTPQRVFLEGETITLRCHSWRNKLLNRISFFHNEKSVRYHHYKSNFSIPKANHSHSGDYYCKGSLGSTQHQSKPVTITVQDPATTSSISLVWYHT

human FcγR2B [4] = target: T3, human FcγR2B (human, UniProt P31994 43-217); assay: SPR, mAb printed on chip, FcγR injected; ND = not detected
T3 construct: also called huFcγR2B
T3 sequence: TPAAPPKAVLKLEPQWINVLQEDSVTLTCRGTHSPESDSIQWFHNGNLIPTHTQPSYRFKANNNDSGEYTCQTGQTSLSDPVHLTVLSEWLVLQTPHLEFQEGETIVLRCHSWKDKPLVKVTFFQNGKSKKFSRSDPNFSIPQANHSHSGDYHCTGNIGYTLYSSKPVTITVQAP

human FcγR3B [5] = target: T4, human FcγR3B (human, UniProt O75015 17-200); assay: as above
T4 construct: also called huFcγR3B
T4 sequence (O75015 17-200): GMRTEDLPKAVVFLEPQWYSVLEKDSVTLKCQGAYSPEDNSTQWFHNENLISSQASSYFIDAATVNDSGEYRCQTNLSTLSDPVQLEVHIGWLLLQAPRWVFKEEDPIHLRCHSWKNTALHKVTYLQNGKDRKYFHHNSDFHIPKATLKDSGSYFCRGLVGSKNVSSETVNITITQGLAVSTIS

human FcγR2A (R131) [6] = target: T5, human FcγR2A (R131) (human, UniProt P12318 34-217); assay: SPR, mAb printed on chip, FcγR injected; fold-change of KD relative to IgG1, same SPR measurement
T5 construct: also called huFcγR2A
T5 sequence: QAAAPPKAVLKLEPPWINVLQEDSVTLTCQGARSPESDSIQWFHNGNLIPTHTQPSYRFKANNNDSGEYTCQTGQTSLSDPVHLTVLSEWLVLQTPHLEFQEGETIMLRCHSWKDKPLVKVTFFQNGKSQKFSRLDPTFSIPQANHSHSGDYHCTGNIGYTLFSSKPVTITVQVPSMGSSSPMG

human FcγR3A (F158) [7] = target: T6, human FcγR3A (F158) (human, UniProt P08637 17-208); assay: as above
T6 construct: also called huFcγR3A
T6 sequence (P08637 17-208): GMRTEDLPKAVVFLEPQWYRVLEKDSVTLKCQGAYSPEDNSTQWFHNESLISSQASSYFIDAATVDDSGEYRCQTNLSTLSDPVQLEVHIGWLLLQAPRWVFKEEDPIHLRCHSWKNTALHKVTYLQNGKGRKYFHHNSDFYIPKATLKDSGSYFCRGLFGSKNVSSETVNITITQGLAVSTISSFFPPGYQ

human FcγR3A (F158) [8] = target: T6, human FcγR3A (F158); assay: SPR, mAb printed on chip, FcγR injected; SPR KD of Table 6: measurable but very weak (0.003-fold of IgG1)
human FcγR2A (R131) [9] = target: T5, human FcγR2A (R131); assay: SPR, mAb printed on chip, FcγR injected; SPR KD of Table 6: measurable but very weak (0.03-fold of IgG1)
mouse FcγRIV [10] = target: T7, mouse FcγRIV (mouse, UniProt A0A0B4J1G0 21-203); assay: BLI, mAb on anti-human Fab-CH1 sensor; ND = not detected
T7 construct: also called mFcγRIV
T7 sequence: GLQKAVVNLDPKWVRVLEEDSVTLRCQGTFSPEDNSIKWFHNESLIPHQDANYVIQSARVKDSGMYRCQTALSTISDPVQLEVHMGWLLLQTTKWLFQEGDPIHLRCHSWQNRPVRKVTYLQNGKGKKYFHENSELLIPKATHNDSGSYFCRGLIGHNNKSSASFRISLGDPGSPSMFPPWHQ

mouse FcγRIIb [11] = target: T8, mouse FcγRIIb (mouse, UniProt P08101 30-210); assay: as above
T8 construct: also called mFcγRIIb; mFcγR2b
T8 sequence: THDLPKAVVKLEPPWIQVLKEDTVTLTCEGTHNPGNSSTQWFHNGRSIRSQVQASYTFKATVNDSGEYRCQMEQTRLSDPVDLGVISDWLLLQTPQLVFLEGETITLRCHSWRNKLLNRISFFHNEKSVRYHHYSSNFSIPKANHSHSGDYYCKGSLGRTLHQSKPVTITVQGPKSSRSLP

mouse FcγRI [12] = target: T9, mouse FcγRI (mouse, UniProt P26151 25-297); assay: as above
T9 construct: also called mFcγRI
T9 sequence: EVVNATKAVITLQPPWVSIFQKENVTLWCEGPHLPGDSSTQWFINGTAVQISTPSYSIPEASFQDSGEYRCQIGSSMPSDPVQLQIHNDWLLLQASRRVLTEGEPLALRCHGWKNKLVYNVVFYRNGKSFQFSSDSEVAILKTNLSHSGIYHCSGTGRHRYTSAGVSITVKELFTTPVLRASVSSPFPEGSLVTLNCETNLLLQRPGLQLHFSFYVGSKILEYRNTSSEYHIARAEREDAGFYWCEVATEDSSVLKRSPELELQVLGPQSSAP

human FcγR2B [13] = target: T3, human FcγR2B; assay: SPR, mAb printed on chip, FcγR injected
human FcγR2A (R131) [14] = target: T5, human FcγR2A (R131); assay: SPR, mAb printed on chip, FcγR injected
human FcγR3A (F158) [15] = target: T6, human FcγR3A (F158); assay: SPR, mAb printed on chip, FcγR injected
human FcγR3B [16] = target: T4, human FcγR3B; assay: SPR, mAb printed on chip, FcγR injected
mouse FcγRIV [17] = target: T7, mouse FcγRIV; assay: BLI, mAb on anti-human Fab-CH1 sensor, FcγR in solution
mouse FcγRIII [18] = target: T2, mouse FcγRIII; assay: as above
mouse FcγRIIb [19] = target: T8, mouse FcγRIIb; assay: as above
mouse FcγRI [20] = target: T9, mouse FcγRI; assay: as above
mouse FcγRIV [21] = target: T7, mouse FcγRIV; assay: as above; remark: listed apart in the source
mouse FcγRIII [22] = target: T2, mouse FcγRIII; assay: as above; remark: listed apart in the source
mouse FcγRIIb [23] = target: T8, mouse FcγRIIb; assay: as above; remark: listed apart in the source
human FcγR2A (R131) [24] = target: T5, human FcγR2A (R131); assay: SPR, mAb printed on chip, FcγR injected; remark: listed apart in the source

B1: mIgG1 VIC16 (antibody, V domains shown)
VH: QVQFQQSGAELAKLGASVKMSCKASGYTFTKYWMHWIKQRPGQGLEWIGYINPSTGYSENNQKFKGKAILTADKSSSTAYMQLSSLTSDDSAVYYCVRGYDSHYYVMDYWGQGTSVTVSS
VL: DIVITQDTASLAVSRGQRATISCRASESVEYYGTTLMQWYQQRPGQPPKLLIYGASNVESGVPARFSGSGSGTDFSLNIHPVEEDDIAMYFCQQSRKVPYTFGGGTKLEIK
IC50 (read off the curve) [Cont.] [1]: ~0.3 µg/mL
IC50, neutralization of VSV pseudotyped to display EBOV GP [2]: 0.34 µg/mL

B2: VIC16-LALA (antibody)
heavy: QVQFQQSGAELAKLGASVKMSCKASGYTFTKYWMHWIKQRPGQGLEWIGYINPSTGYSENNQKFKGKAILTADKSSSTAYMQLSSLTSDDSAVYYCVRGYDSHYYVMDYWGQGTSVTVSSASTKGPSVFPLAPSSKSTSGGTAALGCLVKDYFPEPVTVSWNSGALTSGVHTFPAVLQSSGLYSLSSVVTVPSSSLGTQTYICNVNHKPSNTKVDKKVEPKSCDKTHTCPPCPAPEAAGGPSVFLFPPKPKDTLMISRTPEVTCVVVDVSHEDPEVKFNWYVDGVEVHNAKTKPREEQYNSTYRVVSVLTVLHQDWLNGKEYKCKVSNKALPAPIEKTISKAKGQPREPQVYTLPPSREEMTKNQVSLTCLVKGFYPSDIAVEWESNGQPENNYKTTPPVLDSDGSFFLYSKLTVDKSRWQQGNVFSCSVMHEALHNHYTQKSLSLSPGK
light: DIVITQDTASLAVSRGQRATISCRASESVEYYGTTLMQWYQQRPGQPPKLLIYGASNVESGVPARFSGSGSGTDFSLNIHPVEEDDIAMYFCQQSRKVPYTFGGGTKLEIKRTVAAPSVFIFPPSDEQLKSGTASVVCLLNNFYPREAKVQWKVDNALQSGNSQESVTEQDSKDSTYSLSSTLTLSKADYEKHKVYACEVTHQGLSSPVTKSFNRGEC
Kd (mouse FcγRIII [3]): 820 µM
binding result (human FcγR2B [4]): no binding (tested: FcγR 10 µM to 0.005 µM)
binding result (human FcγR3B [5]): no binding (tested: FcγR 10 µM to 0.005 µM)
fold-change relative to IgG1 (human FcγR2A (R131) [6]): 0.03 fold
fold-change relative to IgG1 (human FcγR3A (F158) [7]): 0.003 fold
Kd (human FcγR3A (F158) [8]): 1.7 mM
Kd (human FcγR2A (R131) [9]): 892 µM
binding result (mouse FcγRIV [10]): no binding (tested: FcγR from 200 nM)
binding result (mouse FcγRIIb [11]): no binding (tested: FcγR from 600 nM)
binding result (mouse FcγRI [12]): no binding (tested: FcγR from 200 nM)

B3: VIC16-SDIEALGA (antibody)
heavy: QVQFQQSGAELAKLGASVKMSCKASGYTFTKYWMHWIKQRPGQGLEWIGYINPSTGYSENNQKFKGKAILTADKSSSTAYMQLSSLTSDDSAVYYCVRGYDSHYYVMDYWGQGTSVTVSSASTKGPSVFPLAPSSKSTSGGTAALGCLVKDYFPEPVTVSWNSGALTSGVHTFPAVLQSSGLYSLSSVVTVPSSSLGTQTYICNVNHKPSNTKVDKKVEPKSCDKTHTCPPCPAPELLAGPDVFLFPPKPKDTLMISRTPEVTCVVVDVSHEDPEVKFNWYVDGVEVHNAKTKPREEQYNSTYRVVSVLTVLHQDWLNGKEYKCKVSNKALPLPEEKTISKAKGQPREPQVYTLPPSREEMTKNQVSLTCLVKGFYPSDIAVEWESNGQPENNYKTTPPVLDSDGSFFLYSKLTVDKSRWQQGNVFSCSVMHEALHNHYTQKSLSLSPGK
light: B2 light
Kd (human FcγR2B [13]): 21 µM
fold-change relative to IgG1 (human FcγR2B [13]): 1.1 fold
Kd (human FcγR2A (R131) [14]): 1600 nM
fold-change relative to IgG1 (human FcγR2A (R131) [14]): 19 fold
Kd (human FcγR3A (F158) [15]): 675 nM
fold-change relative to IgG1 (human FcγR3A (F158) [15]): 9 fold
Kd (human FcγR3B [16]): 3.2 µM
fold-change relative to IgG1 (human FcγR3B [16]): 7.8 fold
Kd (mouse FcγRIV [17]): 1 nM
fold-change relative to IgG1 (mouse FcγRIV [17]): 235 fold
Kd (mouse FcγRIII [18]): 10 nM
fold-change relative to IgG1 (mouse FcγRIII [18]): 0.16 fold
Kd (mouse FcγRIIb [19]): 130 nM
fold-change relative to IgG1 (mouse FcγRIIb [19]): 114 fold
Kd (mouse FcγRI [20]): 100 nM
fold-change relative to IgG1 (mouse FcγRI [20]): 0.8 fold
fold increase in binding (mouse FcγRIV [21]): 14 fold
fold decrease in binding compared to IgG1 (mouse FcγRIII [22]): 6 fold
fold increase in binding (mouse FcγRIIb [23]): 4 fold
fold increase in KD compared to the VIC16 human IgG1 (human FcγR2A (R131) [24]): 18 fold
